Reference: patent US11344504 (MODERNATX, dated 2022)

Target: T1, OX40 receptor on mouse CD4+ T-cells (mouse, UniProt P47741 20-272)
T1 sequence (looked up): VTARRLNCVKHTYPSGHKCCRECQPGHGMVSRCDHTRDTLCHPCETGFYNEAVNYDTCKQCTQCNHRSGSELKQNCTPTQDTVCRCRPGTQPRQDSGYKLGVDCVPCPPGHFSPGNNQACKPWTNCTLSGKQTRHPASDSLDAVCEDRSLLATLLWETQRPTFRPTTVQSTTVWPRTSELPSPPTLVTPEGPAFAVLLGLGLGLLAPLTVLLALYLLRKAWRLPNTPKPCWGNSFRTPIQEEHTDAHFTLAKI
Test: cell-based or functional assay

B1: murine OX40L polypeptide expressed on the surface of B16F10 cells treated with mOX40L_miR-122 mRNA (ligand)
chain: MEGEGVQPLDENLENGSRPRFKWKKTLRLVVSGIKGAGMLLCFIYVCLQLSSSPAKDPPIQRLRGAVTRCEDGQLFISSYKNEYQTMEVQNNSVVIKCDGLYIIYLKGSFFQEVKIDLHFREDHNPISIPMLNDGRRIVFTVVASLAFKDKVYLTVNAPDTLCEHLQINDGELIVVQLTPGYCAPEGSYHSTVNQVPL
- mouse IL-2 production by CD4+ T-cells co-cultured with OX40L-expressing B16F10 cells, fold over control (mock treated or non-translated mRNA): ~2 fold
